# Test results: patent publication US20080044405A1 (Harvard, published 2008)
# B1: Alexa-Fluor 488-labeled CLIP peptide (peptide)
# peptide: CPVSKMRMATPLLMQA
# modifications: Cys labelled with AlexaFluor 488 C5 maleimide
# notes: an N-terminal Cys is added to CLIP(87-101); also called af-CLIP; CLIP-AlexaFluor488
# Key:
# [1] = target: T1, HLA-DR1 (soluble, produced by Drosophila S2 cell lines) (human); assay: fluorescence polarization, DR1-CLIP-AlexaFluor488 0.1 uM at 37 C in the presence of 100 uM KAuCl4, no DM, no excess HA peptide
# [2] = target: T1, HLA-DR1 (soluble, produced by …); assay: fluorescence polarization, DR1-CLIP-AlexaFluor488 0.1 uM at 37 C in the presence of 100 uM K2PdCl4, no DM, no excess HA peptide
# [3] = target: T1, HLA-DR1 (soluble, produced by …); assay: fluorescence polarization, DR1-CLIP-AlexaFluor488 0.1 uM at 37 C in the presence of 100 uM K2PtCl4, no DM, no excess HA peptide
# [4] = target: T1, HLA-DR1 (soluble, produced by …); assay: fluorescence polarization, DR1-CLIP-AlexaFluor488 0.1 uM at 37 C in the presence of 100 uM cisplatin, no DM, no excess HA peptide
# [5] = target: T1, HLA-DR1 (soluble, produced by …); assay: fluorescence polarization, DR1-CLIP-AlexaFluor488 0.1 uM at 37 C with DM (0.1 uM) and excess unlabeled HA peptide (100 uM), no metal
# [6] = target: T1, HLA-DR1 (soluble, produced by …); assay: fluorescence polarization, DR1-CLIP-AlexaFluor488 0.1 uM at 37 C without DM, with excess unlabeled HA peptide (100 uM), no metal (intrinsic dissociation)
binder,measurement,setting,value
B1,t1/2 of CLIP dissociation,[1],2.76 h
same,t1/2 of CLIP dissociation,[2],1.59 h
same,t1/2 of CLIP dissociation,[3],3.05 h
same,t1/2 of CLIP dissociation,[4],4.34 h
same,t1/2 of CLIP dissociation,[5],8.66 h
same,t1/2 of CLIP dissociation,[6],94.6 h
